Experimental data reported in the supplement of paper PMC10065799, “High-throughput profiling of sequence recognition by tyrosine kinases and SH2 domains using bacterial peptide display” (eLife, 2023).

test system: c-Src; test: phosphorylation enrichment, bacterial display (enrichment ratio); higher = better substrate or ligand; peptides without Tyr show the background
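Note: 11-residue human phosphosite peptides and single-mutation variants displayed on the E. coli surface, counted by deep sequencing, each peptide's frequency after selection divided by its frequency in the unselected input library; frequency after pTyr selection over input frequency; kinase dosed for 20-30% of maximal phosphorylation in three min.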

Sequence	phosphorylation enrichment
EALDFCGEVRT [PTEN_Y155_Y155C]	0.545
AIIEEYLHLND [EIF4G1_Y1253]	0.411
HLMLQYDAVVN [SLC25A32_Y152_R147H]	0.885
RKGGSYSQAAS [HLA-A_Y344_T345S]	0.741
LRGEDYGFSVD [PRKCI_Y430]	0.512
RHLREYQDLLN [DES_Y388]	0.41
RTLSEYARRHV [RERE_Y1259_P1262R]	0.446
LKKKQYTSIHH [APP_Y728]	1.03
SPFAVYLFFTF [RPGRIP1_Y826_R827L_YF]	0.425
DCAAIYGNEPE [AKR1A1_Y50]	1.42
MAYDRYAAICS [OR8H2_Y123_H120Y]	0.661
RGVTRYIFNRE [HLA-DQB1_Y62_Y58G_YF]	1.38
YQLENCCNGGG [INS_Y108_Y108C]	0.59
NYNPNYCFAGK [ALK_Y1096_D1091N]	0.564
IWDLKYTIENP [SND1_Y178_R174W]	0.688
AVLQPYIFVAT [CFTR_Y1014]	0.701
SLALFYRNVFH [RBL1_Y792_K794N_YF]	0.409

Sequence	phosphorylation enrichment
RFGKVYKAHLF [ROR2_Y488_G490A]	0.886
VHNLDYFKKTT [FGFR3_Y647_YF]	0.523
EAKENYGKTLK [CHL1_Y291_T287A]	0.424
EDASEYFENFI [PARP4_Y214_F215Y_YF]	0.618
GFFDLYGGEKF [PTPN11_Y66_D61G_YF]	2.7
ESFRLYPPVPQ [CYP4B1_Y377]	0.391
NTQRPHYKGGG [TYROBP_Y111_Y111H]	0.361
LSSETYVKSFT [F5_Y2149_M2148T_YF]	0.512
MKSIKYMDKEI [CCDC60_Y41]	0.447
RSSGGYEPRGC [FUS_Y239_R244C]	0.376
ESLRRYLENGK [HLA-B_Y195_W191S]	0.34
FGGLRYGFGGL [KRTAP20-2_Y13_V17G_YF]	0.379
DTERIYDDDFF [UBA1_Y560]	0.736
IKETHYMVDKC	0.403
ENPLDYGSAWA [AR_Y395]	0.476
ENELTYFCCKK [CD59_Y86_YF]	2.21

molecular target: Fyn (UniProt P06241); test: as above
Sequence (P06241 whole entry, looked up): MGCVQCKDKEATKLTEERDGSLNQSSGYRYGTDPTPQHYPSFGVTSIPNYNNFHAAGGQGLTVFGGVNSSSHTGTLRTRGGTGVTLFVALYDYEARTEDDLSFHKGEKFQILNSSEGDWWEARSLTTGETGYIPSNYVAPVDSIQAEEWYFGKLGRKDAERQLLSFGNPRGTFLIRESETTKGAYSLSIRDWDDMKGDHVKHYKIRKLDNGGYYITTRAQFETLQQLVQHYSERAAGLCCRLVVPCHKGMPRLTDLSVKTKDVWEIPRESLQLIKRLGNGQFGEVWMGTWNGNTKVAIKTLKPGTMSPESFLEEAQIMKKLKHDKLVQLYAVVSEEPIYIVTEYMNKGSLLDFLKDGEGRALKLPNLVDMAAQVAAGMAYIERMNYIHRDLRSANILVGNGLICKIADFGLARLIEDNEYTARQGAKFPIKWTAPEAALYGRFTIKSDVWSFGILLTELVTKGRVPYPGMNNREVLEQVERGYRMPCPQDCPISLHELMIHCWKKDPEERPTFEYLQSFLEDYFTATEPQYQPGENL

Sequence	phosphorylation enrichment
EALDFCGEVRT [PTEN_Y155_Y155C]	0.583
AIIEEYLHLND [EIF4G1_Y1253]	0.493
HLMLQYDAVVN [SLC25A32_Y152_R147H]	1.15
RKGGSYSQAAS [HLA-A_Y344_T345S]	0.537
LRGEDYGFSVD [PRKCI_Y430]	0.518
RHLREYQDLLN [DES_Y388]	0.483
RTLSEYARRHV [RERE_Y1259_P1262R]	0.338
LKKKQYTSIHH [APP_Y728]	0.92
SPFAVYLFFTF [RPGRIP1_Y826_R827L_YF]	0.477
DCAAIYGNEPE [AKR1A1_Y50]	1.02
MAYDRYAAICS [OR8H2_Y123_H120Y]	0.526
RGVTRYIFNRE [HLA-DQB1_Y62_Y58G_YF]	0.982
YQLENCCNGGG [INS_Y108_Y108C]	0.689
NYNPNYCFAGK [ALK_Y1096_D1091N]	0.57
IWDLKYTIENP [SND1_Y178_R174W]	0.353
AVLQPYIFVAT [CFTR_Y1014]	0.606
SLALFYRNVFH [RBL1_Y792_K794N_YF]	0.49

Sequence	phosphorylation enrichment
RFGKVYKAHLF [ROR2_Y488_G490A]	0.57
VHNLDYFKKTT [FGFR3_Y647_YF]	0.471
EAKENYGKTLK [CHL1_Y291_T287A]	0.338
EDASEYFENFI [PARP4_Y214_F215Y_YF]	0.613
GFFDLYGGEKF [PTPN11_Y66_D61G_YF]	2.13
ESFRLYPPVPQ [CYP4B1_Y377]	0.457
NTQRPHYKGGG [TYROBP_Y111_Y111H]	0.402
LSSETYVKSFT [F5_Y2149_M2148T_YF]	0.665
MKSIKYMDKEI [CCDC60_Y41]	0.375
RSSGGYEPRGC [FUS_Y239_R244C]	0.351
ESLRRYLENGK [HLA-B_Y195_W191S]	0.384
FGGLRYGFGGL [KRTAP20-2_Y13_V17G_YF]	0.389
DTERIYDDDFF [UBA1_Y560]	0.748
IKETHYMVDKC	0.46
ENPLDYGSAWA [AR_Y395]	0.527
ENELTYFCCKK [CD59_Y86_YF]	1.08

molecular target: Hck (UniProt P08631); test: as above
Sequence (P08631 whole entry, looked up): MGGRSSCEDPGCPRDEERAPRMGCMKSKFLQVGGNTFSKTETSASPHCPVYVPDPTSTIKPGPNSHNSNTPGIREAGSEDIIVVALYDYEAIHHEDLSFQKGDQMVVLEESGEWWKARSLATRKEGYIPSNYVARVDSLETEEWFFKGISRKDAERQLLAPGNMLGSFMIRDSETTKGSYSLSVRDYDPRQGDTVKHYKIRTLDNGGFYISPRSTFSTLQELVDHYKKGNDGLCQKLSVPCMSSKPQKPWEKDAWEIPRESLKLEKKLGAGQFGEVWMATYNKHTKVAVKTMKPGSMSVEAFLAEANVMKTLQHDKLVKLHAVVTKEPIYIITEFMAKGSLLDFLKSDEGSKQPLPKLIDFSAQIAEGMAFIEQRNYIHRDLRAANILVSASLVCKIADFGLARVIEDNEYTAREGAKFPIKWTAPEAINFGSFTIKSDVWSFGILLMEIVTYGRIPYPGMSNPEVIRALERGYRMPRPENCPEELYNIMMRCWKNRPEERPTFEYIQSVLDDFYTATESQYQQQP

Sequence	phosphorylation enrichment
EALDFCGEVRT [PTEN_Y155_Y155C]	0.642
AIIEEYLHLND [EIF4G1_Y1253]	0.492
HLMLQYDAVVN [SLC25A32_Y152_R147H]	1.39
RKGGSYSQAAS [HLA-A_Y344_T345S]	0.38
LRGEDYGFSVD [PRKCI_Y430]	0.58
RHLREYQDLLN [DES_Y388]	0.464
RTLSEYARRHV [RERE_Y1259_P1262R]	0.461
LKKKQYTSIHH [APP_Y728]	0.869
SPFAVYLFFTF [RPGRIP1_Y826_R827L_YF]	0.361
DCAAIYGNEPE [AKR1A1_Y50]	0.897
MAYDRYAAICS [OR8H2_Y123_H120Y]	0.76
RGVTRYIFNRE [HLA-DQB1_Y62_Y58G_YF]	1.08
YQLENCCNGGG [INS_Y108_Y108C]	0.563
NYNPNYCFAGK [ALK_Y1096_D1091N]	0.433
IWDLKYTIENP [SND1_Y178_R174W]	0.433
AVLQPYIFVAT [CFTR_Y1014]	0.586
SLALFYRNVFH [RBL1_Y792_K794N_YF]	0.5

Sequence	phosphorylation enrichment
RFGKVYKAHLF [ROR2_Y488_G490A]	0.645
VHNLDYFKKTT [FGFR3_Y647_YF]	0.46
EAKENYGKTLK [CHL1_Y291_T287A]	0.328
EDASEYFENFI [PARP4_Y214_F215Y_YF]	0.624
GFFDLYGGEKF [PTPN11_Y66_D61G_YF]	3.85
ESFRLYPPVPQ [CYP4B1_Y377]	0.415
NTQRPHYKGGG [TYROBP_Y111_Y111H]	0.384
LSSETYVKSFT [F5_Y2149_M2148T_YF]	0.858
MKSIKYMDKEI [CCDC60_Y41]	0.402
RSSGGYEPRGC [FUS_Y239_R244C]	0.258
ESLRRYLENGK [HLA-B_Y195_W191S]	0.461
FGGLRYGFGGL [KRTAP20-2_Y13_V17G_YF]	0.465
DTERIYDDDFF [UBA1_Y560]	0.668
IKETHYMVDKC	0.448
ENPLDYGSAWA [AR_Y395]	0.559
ENELTYFCCKK [CD59_Y86_YF]	1.18

molecular target: Fes (UniProt P07332); test: as above
Sequence (P07332 whole entry, looked up): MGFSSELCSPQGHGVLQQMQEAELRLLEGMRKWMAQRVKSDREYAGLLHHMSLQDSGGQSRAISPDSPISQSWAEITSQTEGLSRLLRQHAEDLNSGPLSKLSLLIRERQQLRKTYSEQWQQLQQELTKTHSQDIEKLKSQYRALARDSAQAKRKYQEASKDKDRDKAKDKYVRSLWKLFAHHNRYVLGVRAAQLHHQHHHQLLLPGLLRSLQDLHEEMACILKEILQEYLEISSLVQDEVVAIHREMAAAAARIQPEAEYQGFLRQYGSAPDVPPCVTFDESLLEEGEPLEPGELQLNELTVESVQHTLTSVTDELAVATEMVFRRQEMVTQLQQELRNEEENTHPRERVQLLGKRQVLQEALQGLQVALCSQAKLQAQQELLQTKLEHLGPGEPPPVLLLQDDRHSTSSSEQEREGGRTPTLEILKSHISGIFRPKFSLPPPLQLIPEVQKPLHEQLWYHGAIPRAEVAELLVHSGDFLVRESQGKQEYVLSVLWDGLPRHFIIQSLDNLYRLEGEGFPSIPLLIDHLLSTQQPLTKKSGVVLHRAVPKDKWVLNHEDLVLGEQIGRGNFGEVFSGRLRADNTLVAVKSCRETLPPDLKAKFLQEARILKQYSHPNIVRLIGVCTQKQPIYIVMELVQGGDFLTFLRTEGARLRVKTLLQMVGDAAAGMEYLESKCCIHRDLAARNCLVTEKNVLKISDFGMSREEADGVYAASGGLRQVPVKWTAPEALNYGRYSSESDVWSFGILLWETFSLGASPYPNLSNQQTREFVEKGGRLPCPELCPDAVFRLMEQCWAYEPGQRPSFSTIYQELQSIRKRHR

Sequence	phosphorylation enrichment
EALDFCGEVRT [PTEN_Y155_Y155C]	1.48
AIIEEYLHLND [EIF4G1_Y1253]	1.19
HLMLQYDAVVN [SLC25A32_Y152_R147H]	2.01
RKGGSYSQAAS [HLA-A_Y344_T345S]	0.625
LRGEDYGFSVD [PRKCI_Y430]	1.35
RHLREYQDLLN [DES_Y388]	1.19
RTLSEYARRHV [RERE_Y1259_P1262R]	0.629
LKKKQYTSIHH [APP_Y728]	0.787
SPFAVYLFFTF [RPGRIP1_Y826_R827L_YF]	0.925
DCAAIYGNEPE [AKR1A1_Y50]	1.22
MAYDRYAAICS [OR8H2_Y123_H120Y]	1.35
RGVTRYIFNRE [HLA-DQB1_Y62_Y58G_YF]	1.85
YQLENCCNGGG [INS_Y108_Y108C]	0.903
NYNPNYCFAGK [ALK_Y1096_D1091N]	0.879
IWDLKYTIENP [SND1_Y178_R174W]	1.16
AVLQPYIFVAT [CFTR_Y1014]	1.69
SLALFYRNVFH [RBL1_Y792_K794N_YF]	1.19

Sequence	phosphorylation enrichment
RFGKVYKAHLF [ROR2_Y488_G490A]	0.604
VHNLDYFKKTT [FGFR3_Y647_YF]	0.91
EAKENYGKTLK [CHL1_Y291_T287A]	0.732
EDASEYFENFI [PARP4_Y214_F215Y_YF]	1.47
GFFDLYGGEKF [PTPN11_Y66_D61G_YF]	1.05
ESFRLYPPVPQ [CYP4B1_Y377]	0.704
NTQRPHYKGGG [TYROBP_Y111_Y111H]	0.549
LSSETYVKSFT [F5_Y2149_M2148T_YF]	1.14
MKSIKYMDKEI [CCDC60_Y41]	0.569
RSSGGYEPRGC [FUS_Y239_R244C]	0.533
ESLRRYLENGK [HLA-B_Y195_W191S]	0.629
FGGLRYGFGGL [KRTAP20-2_Y13_V17G_YF]	1.08
DTERIYDDDFF [UBA1_Y560]	1.41
IKETHYMVDKC	0.944
ENPLDYGSAWA [AR_Y395]	1.08
ENELTYFCCKK [CD59_Y86_YF]	1.04
